Experimental data reported in patent US9217013B2, “Treatment of amyloidoses using myelin basic protein and fragments thereof” (The Research Foundation for the State University of New York, priority 2008, dated 2015).
“Also recorded” adds a separate entry of the source.

Legend:
[1] = target: Dutch/Iowa CAA mutant Aβ40 (Aβ40DI) (Homo sapiens, UniProt P05067, D694N/E693Q); assay: Surface plasmon resonance binding to immobilized Dutch/Iowa Aβ40
Experimental: All runs were performed on a Biacore 2000 instrument using 10 mM HEPES (pH 7.4), 150 mM NaCl, 3 mM EDTA, and 0.005% (v/v) Tween 20 as running buffer and diluent. Streptavidiri was conjugated to the surface of three flow cells of a CM5 chip at 10 μl/min using amine coupling chemistry to a final average response level of 1890.2 response units. N-terminally biotinylated Aβ peptides were resuspended in Me2SO to 2.5 mM and serially diluted to 13 nM immediately before application. Biotinylated Aβ40WT and Aβ40DI were bound to individual flow cells at 10 μl/min to achieve an average relative response level of 157.1 response units, leaving flow cell 1 as reference. […] The resultant Rmax of these surfaces was ˜700 response units with MBP as analyte. Purified MBP was passed over all four flow cells at 5, 10, 25, 50, and 100 nM at a flow rate of 30 μl/min for kinetic measurements. […] Surfaces were regenerated with 0.2 M glycine (pH 2.0) and 150 mM NaCl between runs. The resulting sensorgrams were analyzed by BIAanalysis software. Triplicate concentration series were used for each surface.
Using recombinant methodology to express and purify regions of the 18.5 kDa human MBP protein and test their abilities to bind Aβ and inhibit fibrillogenesis, cDNAs were prepared for the following regions of MBP shown in FIG. 3. The cDNAs for MBP fragments were cloned into pTYB11 plasmids containing an ampr gene and transformed into competent E. coli BL21 DE3 cells. Expression of cDNAs in this vector results in a fusion protein containing a chitin binding domain (CBD) as well as a self-cleavable intein protein from S. cerevisiae. CBD-Intein-MBP fusion proteins were captured on chitin beads from the resulting cell lysates. MBP protein fragments were eluted by inducing the cleavage between the C-terminus of the intein and the N-terminus of MBP by exposure to dithiothreitol. […] MBP was further purified by cation exchange chromatography on CM52 resin, resulting in a >95% pure protein preparations. Each of the four MBP fragments were tested for binding to Dutch/Iowa Aβ40 and wild-type Aβ42 by surface plasmon resonance (FIG. 4).

[2] = target: T1, Aβ40DI (Homo sapiens, UniProt P05067, D694N/E693Q); assay: Thioflavin T fluorescence assay of Aβ40DI fibril formation; type: biochemical; settings: 12.5 μM Aβ40DI, 1.56 μM protein, PBS, 37° C.
Experimental: FIG. 16 Thioflavin T analysis of inhibition of CAA mutant Aβ fibril formation by MBP. Aβ40DI at a concentration of 12.5 μM in PBS in the absence (□) or presence of 1.56 μM MBP(□) or bovine a-lactalbumin (Lalb; □) as a control. At specific time points, aliquots were collected from each sample and analyzed by thioflavin T binding and fluorescence to determine fibrillar assembly. Data represent the means±S.D. of triplicate samples. A.U., arbitrary units.
The Aβ B binding properties of the exemplary fragments of MBP described herein were determined in a thioflavin T fluorescence assay as follows: Lyophilized Aβ peptides were first resuspended with Me2SO to 2.5 mM, diluted to 12.5 μM in PBS, and then incubated at 37° C. with rocking either alone or with 1.56 μM MBP or bovine α-lactalbumin. Control samples containing 0.5% Me2SO and 1.56 μM MBP or lactalbumin in PBS were also included. At each time point, 100 μl samples of each reaction were placed in a 96-well microplate in triplicate, and 5 μl of 100 µM thioflavin T was added. The plate was mixed and incubated at 22° C. in the dark for 10 min. Fluorescence was measured at 490 nm with an excitation wavelength of 446 nm in a SpectraMax spectrofluorometer (Molecular Devices, Sunnyvale, Calif.) using SoftMax Pro control software. It is apparent that the method enables persons of skill in the art to determine the binding properties of MBP, variants thereof, and fragments thereof for any Aβ-peptide, including mutants thereof.

[3] = target: T1, Aβ40DI; assay: Co-immunoprecipitation of MBP with Aβ40DI; type: binding; settings: purified MBP
Experimental: AP peptides were resuspended in Me2SO to 2.5 mM and used at 10.8 μM. MBP was used at 1.56 μM. Proteins were combined in 250 μl of incubation buffer (PBS, 0.05% Tween 20, and 1% BSA). Anti-MBP mAb 382 was added to each sample mixture and incubated for 1 h at 4° C. with rocking. After incubation, 20 μl of washed GammaBind protein G-Sepharose beads (Amersham Biosciences) were added to each mixture, followed by incubation for an additional 1 h at 4° C. with rocking. Beads were separated by centrifugation at 8000×g for 2 min. Supernatants were removed, and beads were washed with 1 ml of incubation buffer. Separation and washing were repeated three times. A final wash was performed in PBS and 0.05% Tween 20 to remove excess BSA. Centrifuged beads were combined with 25 μl of reducing SDS-PAGE loading buffer and heated as described above. 10 μl of each sample/loading buffer mixture was loaded onto 10-20% Tricine gels (Invitrogen) and electrophoresed at 125 V for 35 min. Immunoblotting was carried out as described above using either biotinylated anti-MBP mAb 384 or biotinylated anti-Aβ mAb 3D6 as primary antibody. Experiments were performed in triplicate.

B1: myelin basic protein (protein)
chain: ASQKRPSQRHGSKYLATASTMDHARHGFLPRHRDTGILDSIGRFFGGDRGAPKRGSGKDSHHPARTAHYGSLPQKSHGRTQDENPVVHFFKNIVTPRTPPPSQGKGRGLSLSRFSWGAEGQRPGFGYGGRASDYKSAHKGFKGVDAQGTLSKIFKLGGRDSRSGSPMARR
notes: myelin basic protein, major form about 18.5 Kd (170 residues); purified protein
**Q.** How did the “binding to Dutch/Iowa CAA mutant Aβ relative to wild-type Aβ” value ([1]; SPR) turn out when B1 was run?
**A.** The value was “bound more tightly”.

**Q.** What about the Kd ([1]; surface plasmon resonance) of the same molecule?
**A.** The Kd was 0.0169 µM.

**Q.** And the “inhibition of Aβ40DI fibril assembly (thioflavin T)” value [2]?
**A.** The value was “completely inhibits; also recorded: inhibit”.

**Q.** What about the “preference for Aβ40DI over Aβ40WT by immunoprecipitation” value [3] of the same molecule?
**A.** Its value is “showed no preference”.
